1 substance from patent publication US12037382 can be followed below.

The target in assay [1] is US28 wild type, G protein-coupled receptor of human cytomegalovirus strain VHL/E (human cytomegalovirus strain VHL/E). In words: displacement of 125I-CCL5 from US28-expressing HEK293T membranes by unlabeled CCL5.
For assay [2] the target is unchanged. Description: cell-based or functional assay.
Assay [3] has the same target. Description: competition of unlabeled CCL5 against 125I-CCL5 on US28.

Chain of human chemokine CCL5 (P13501 24-91 limits assumed): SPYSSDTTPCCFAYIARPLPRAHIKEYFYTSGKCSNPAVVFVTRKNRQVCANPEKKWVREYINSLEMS

With “human chemokine CCL5 (from UniProt P13501 24-91) (ligand)”, the IC50 (read off the curve) in assay [1] worked out at 3 nM; in assay [3] it was 1 nM. Moreover, in assay [2], the CCL5-induced accumulation of inositol phosphates (EC80) came to 31.6 nM.
